These results are taken from a protein production outcome set (Wang et al. 2014).

The data set is described as follows: label from the status in PepcDB records.

Consider “MRLLAKIICLMLWAICVAEDCNELPPRRNTEILTGSWSDQTYPEGTQAIYKCRPGYRSLGNVIMVCRKGEWVALNPLRKCQKRPCGHPGDTPFGTFTLTGGNVFEYGVKAVYTCNEGYQLLGEINYRECDTDGWTNDIPICEVVKCLPVTAPENGKIVSSAMEPDREYHFGQAVRFVCNSGYKIEGDEEMHCSDDGFWSKEKPKCVEISCKSPDVINGSPISQKIIYKENERFQYKCNMGYEYSERGDAVCTESGWRPLPSCEEKSCDNPYIPNGDYSPLRIKHRTGDEITYQCRNGFYPATRGNTAKCTSTGWIPAPRCTLKPCDYPDIKHGGLYHENMRRPYFPVAVGKYYSYYCDEHFETPSGSYWDHIHCTQDGWSPAVPCLRKCYFPYLENGYNQNYGRKFVQGKSIDVACHPGYALPKAQTTVTCMENGWSPTPRCIRVKTCSKSSIDIENGFISESQYTYALKEKAKYQCKLGYVTADGETSGSITCGKDGWSAQPTCIKSCDIPVFMNARTKNDFTWFKLNDTLDYECHDGYESNTGSTTGSIVCGYNGWSDLPICYERECELPKIDVHLVPDRKKDQYKVGEVLKFSCKPGFTIVGPNSVQCYHFGLSPDLPICKEQVQSCGPPPELLNGNVKEKTKEEYGHSEVVEYYCNPRFLMKGPNKIQCVDGEWTTLPVCIVEESTCGDIPELEHGWAQLSSPPYYYGDSVEFNCSESFTMIGHRSITCIHGVWTQLPQCVAIDKLKKCKSSNLIILEEHLKNKKEFDHNSNIRYRCRGKEGWIHTVCINGRWDPEVNCSMAQIQLCPPPPQIPNSHNMTTTLNYRDGEKVSVLCQENYLIQEGEEITCKDGRWQSIPLCVEKIPCSQPPQIEHGTINSSRSSQESYAHGTKLSYTCEGGFRISEENETTCYMGKWSSPPQCEGLPCKSPPEISHGVVAHMSDSYQYGEEVTYKCFEGFGIDGPAIAKCLGEKWSHPPSCIKTDCLSLPSFENAIPMGEKKDVYKAGEQVTYTCATYYKMDGASNVTCINSRWTGRPTCRDTSCVNPPTVQNAYIVSRQMSKYPSGERVRYQCRSPYEMFGDEEVMCLNGNWTEPPQCKDSTGKCGPPPPIDNGDITSFPLSVYAPASSVEYQCQNLYQLEGNKRITCRNGQWSEPPKCLHPCVISREIMENYNIALRWTAKQKLYSRTGESVEFVCKRGYRLSSRSHTLRTTCWDGKLEYPTCAKR”, for which the protein production entry is “failed”.
For the sequence “MRLLFSFSCRRRWRERERLRRMREIKMIKLPHKKPIIFFCQLFLIATLIIACHQTTIHTSTNTCTPNYNPNQDYFPNKIKITHARGLAVEYHKHYKVVTIKNPWQNAKTQFQYVLVQCGTPTPQGFKQAQVITVPIHSIVSLSTTHLPHLAKLGVVDKLIGISNSKQVNTPDVVERIKAGKITQVGNNSNVDIERLLELNPDLVTTFGTGNSQTDSYSKLTEAGLKVGINAEYMEDTPLGRSEWLKFTALFFNQEEKAEKIFAEITDKYEQVAQKVKSVKNRPTVFVGFNFKGTWFMPGGNSYVAKYLADAGGDYLWSNEQSAGSLPLSFEVVLERATNADYWLNFSQSWQSLKDLLAEDNRYADFKSVKIGNLYNNNARVNESGGNDYWEGGISNPDIVLSDLIRILHPEILPNHQLFYYHKILK”, the protein production entry was “failed”.
For the sequence “MRLLVAFAVIYFISISPVCAENTASTINIPTPAIESPLASKSLLLDISLIGQEKLVTVGQHGHILLSNDGKKWQQANVPVQVTLTNVFFLNEQLGWAVGHDATILHSQDGGLNWQVQQYLPLLEKPLFDIYFKNPQQGIAVGAYGQVFRTNDGGSTWQNEFHQEILLADDVEYLNELKAEDEAAYLDEITFILPHFNRLVQDGGSLFLLGETGLLAKSDDFGLTWQQFDNFYQGSFFSLARTKTGNVLVAGLRGHVFRSLNHGSQWDEVPTNTTALLNDIVFANDERIFILGNNGMLLISTDDGESFSKIPQQDGKTLIAGVWFKGQLIAVSDVGIKVVDLSQELEHHHHHH”, the protein production result was “failed”.
Take “MRLTGEIMKIITCFKLVPEEQDIVVTPEYTLNFDNADAKISQFDLNAIEAASQLATDDDEIAALTVGGSLLQNSKVRKDVLSRGPHSLYMVQDAQLEHALPLDTAKALATAVEKIGFDLLIFGEGSGDLYAQQVGLLVGELLQLPVINAVSAIQRQGNTLVIERTLEDDVEVIELSVPAVLCVTSDINVPRIPSMKAILGAGKKPVNQWQASDIGWSQSAPLAELTGIRVPPQTKRKHIILDNDSPEAIAELAEHLKKALN”: the protein production entry was “failed”.
For the sequence “MRLVVLSDIHGNLGAFEAVLADIATQDVDDIISLGDNVGYGPDPGPVLRLLRQRGIDSVLGNHEAAIADRRRRRRFNSQSREALDLTEAWLDADGRACIASMPPVLLRHGCRFVHGMPPDSPFTYLFEFMGRRLPKVFTLFAEALCFVGHTHDLEVLRCDETGAVASVLLPTASPDVAGQMPPGPLPGPSPDATLATSPGAQPEGLTLSTASPRVTVQTLVLDAGARHLVNVGSVGQPRDGDPRAKYVVWDDTARTLTVRRVAYDVAAAVRRFAEAGVAQRYIDRLG”, the protein production result is “failed”.
Under “MRLYVMLLSLSLIWGFSFVFIEHLLGIVGVWGTVVVRCFAGAIILLPILLMRRKLFYRPAPWKALMIVGIFNAGLPWGLIALSQTEIYSSTAAVLNALTPLFTGLIGFLLYSNALSRQQWGGIVLGFSGVVVLTGFQLQLLAPEHFVGVGTMILATICYGFASQYVKRHLHDTDVVLITTFSLLFGGLVGLIGMWITDSLHVVRVPLTIDWLSLISIIGLGCLGSGMAHLLYYDLMKKGGPEFATTVTYLIPMTAIIWGKLFLDELITKNIVIGMLMILMGVYFTSRKRNVCSKANEDSNKGELA” stands “failed”.
Consider “MRMIIAFLLGCLGMFLTTGCAFVSVPLMSAPQPLAEQVLEGEGTKKILIVDISGAIGDQAKGGGLLSRGTPSTVSLVREVLLKAERDPKVAGLILRINSPGGTVTASDIIRHDLLAFKERRNLPVSACIMGIGASGGYYVATAADGITAHPTALTGSIGVLLMTFNVEGLLGKVGVEEKTIKSGGKKDLLSPFRRATPEEERLVQGVIDQFHGRFVDVVQARPGNRLSRHDLLTLADGRIFSAADALAAGLIDRIGYLDDVIASLRDRIGDPDARVVTYFRPGSYQGSIYAESAAEPSMADLLGGFDMTGGGQFMYLWRPW”, for which the protein production entry is given as “failed”.
With “MRMRSGTAVAGVAALAVAGMALTAAFEPVWAHGPTRQKVRESIEINAAPAKVWAVIGNFQDMSWLPPVTKTEGEKGNEIGATRRLTLTGGATVDEELYKFDAAAMTYSYRITAVDVKVLPVTNYSSTLTVTPSADGKGATLEWAGAFYRGFPNNDPPPELSDEAAKTAVSGLYKAGLEALKKKIESGS”, the protein production result is given as “failed”.
“MRNCIFYSLVLALLFLIGSCKDSDDNKTTGATYDPNQPVTVESFMPVEGKLREKVIVKGSNFGTDKSKVKVYFVDEAAERLSTVIGIDNNTLYCLAPRQLPGGNRIKVIVDGKEVTTDGTFKYEQAQNVSTISGSASKDGNDDGDLASAKFKYMWGIAAVGNNTVLAYQRDDPRVRLISVDDNKVTTVHPGFKGGKPAVTKDKQRVYSIGWEGTHTVYVYMKASGWAPTRIGQLGSTFSGKIGAVALDETEEWLYFVDSNKNFGRFNVKTQEVTLIKQLELSGSLGTNPGPYLIYYFVDSNFYMSDQNLSSVYKITPDGECEWFCGSATQKTVQDGLREEALFAQPNGMTVDEDGNFYIVDGFKGYCLRKLDILDGYVSTVAGQVDVASQIDGTPLEATFNYPYDICYDGEGGYWIAEAWGKAIRKYAVE”: the protein production result was “failed”.
On to “MRNETGGTMVVDLQTDPYNNIHSRHNLSYDLSEGPKPRPKFGNISKTDHDEIFPPDDPIIINSNVTHQRFSSVSASTMSSGPASGEGSPCVMSPWARVSPPWGADFNEDNVLETNGLIGSIVRKEGHIYSLAASGDLLYTGSDSKNIRVWKNLKEHAGFKSSSGLIKAIVIFGDRIFTGHQDGKIRIWKVSKRKPGKHKRVGTLPTFKSMVKSSVNPKHFMEVRRNRNSVKTKHNDAVSSLSLDVELGLLYSSSWDTTIKVWRIADSKCLESIHAHDDAINSVMSGFDDLVFTGSADGTVKVWKRELQGKGTKHTLAQVLLKQENAVTALAVKSQSSIVYCGSSDGLVNYWERSKRSFTGGILKGHKSAVLCLGIAGNLLLSGSADKNICVWRRDPSDKSHQCLSVLTGHMGPVKCLAVEEERACHQGAKASVAEGDRKWIIYSGSLDKSVKVWRVSERMATWKEMDEPAASSERKSSSSPHEGSGAWSSRNVEK”, for which the protein production result is on record as “failed”.
Under “MRNLKDRVLNSLKGNKKDIKISVVVPTYNTELEGLKNLMASIDKQTMNPDEYELVFVDDGSTTDTYERLQEFAETRPNMTVKQIENSGWGSRPRNIATKMAKGEYILYLDHDDTVFPETFERVYNFGKENNLDVVSGKEVRTNGWSWGWKQFSENNPHAEEMGIECLLPMTPHKFYKREFLLENDITFDDGARVLWEDVYFNSKAFIHGAKVGILADYPTYYWIATGANNSSSFGRDPHEKWNQINKLFNFFKDNIKEQRDLDFMLTHWYRSRVLGILGQWLLKNNNERIDIEFNYAKKLAEELIPAYISENLDKNNQVKDYLLRQGDLDSLKKLAQIDAGITALSYVEDAYFKEDKLFFKTSTKMTYEDKEDFFIEKTADRMERILPEEIKSKLPKEFFDYSDDLAEFTYEPSIKGRNSRATWKIDGSTSNVEVVNKKANLYKIEGEMSFSVQINDYILDAADKKQPWDIATRFTGLGYTSHRALTIGKILIKTALINNKTMIVYKNASGLISLDVGSSVRSIVEDSGVKREQILIDKTSGKVTIPLNEIHVFGESLIEGNAELKPVGISDADPINVKAKLIGEANKARVEVLLGDEKLSGEYHLVTNIQGKKDKQQIKITL” stands “failed”; under “MRNLLQKCFKWQWLVCLAVGCCFSSCKDDEESTSGYDPNKPIVLTDFYPPEGKLATQVILNGSNFGDSKENVKVFFNDKEASVISVKDDRMLVLAPKRASTIEDPECVVKVQVHEQIEEYKQTFDYYIQTTVTTLVGGSTSAQVNPTGTIPLSEAQFRANIDRCICVDQDKNVFFLVDNDGKFAAFMLNEEADKLISLKSDINALFNSPVLGYNSKDDIVYQFWANRDSHEVYYFDPKTDYAPTTAISSISWDDPNFPNIEGFGVWAAKCNFTMGPDGKMYSRMLGGNLVRIDVENARGENLTNGDLVGTKDGSAYGLVFDPQDENVFYFSNNDKHCIYKYDLRTKECACWAGQEGKSGYLDGPIGQAMFNKPGQMCVDSEGNIILTDTENHCIRKITMSTGYVSTLAGKPQNSGYVNGSAEDAQFKKPLGICIDNDDVMYIGDSENRAIRRLAVELEHHHHHH”, “not failed”; under “MRNNLSAYSNIETGEAATELECFPYSVQHNDEGVCLLVRMGPHRILLDCGLADISSIQKSLTPSVKRGNPPSPADLVLVTHAHPDHARGLLALHQAFPNLPIYGSEVTSKLLPLNWLDHNPQEIPQLCHALPLRSPVELQDGLVAEIFPCGHLPGAVAILLTYTTEQRSYKLLYTGDFFLSNSRLVEGLRLEELRGIDLNVLIIEGTYGTSRHPHRRNQENQLAERINRAISDRYSVVLPTPALGLGQELLMLLRSHHHFTGRDLDIWVDGAVAIGCDAYLELLPHLPASVQNFARHQPLFWDERVRPRVRRLQAENRSIVGKSPCIVLTDSTSDLEQYCQPETGPWLILLPEKIDIKVNKKYSAPTTVESYLLAQHSDGPGTTQLIHNLRPQHVVFVHGSPAYLADLTCLEELQNRYHIHSPAAETMVELLIGETFLQPAPPETNYEGELTELGTVITISIPEAITADPRWRQFADTGLIEARWQGEELVLRGLTQRELLNQNSDRNIPPEIDCCGTCRHQRGQRCWNPSSPLYNFRVTLEGHCPAFERLSNGE”, “failed”.
Consider “MRNPNDVFHLAIPARDLDEAYDFYVTKLGCKLARRYPDRITLDFFGDQLVCHLSDRWDREVSMYPRHFGITFRDKKHFDNLYKLAKQRGIPFYHDLSRRFEGLIEEHETFFLIDPSNNLLEFKYYFDDRMMY”, for which the protein production entry is “not failed”.
“MRPAHICLAVLVAAVWGVNFTVIEVGLAHFPPLLFSALRFLAAALPAVFFVGRPKVAWKWIVAVGLVLGVAKFGLLFIGMDAGMPAGLSSLVLQIQAVFTALIAFAALGERPTGIRLAGMAVALCGVGLAAVDEGTGGPLGAFALVIGAAVCWGASNVLTRKASPPDPLNFMVWVSTVPVVPLLGLSLLTEGPSADLNALGSLDWQGAGVILYVAWITTVFGFGAWGWLLHRHPASTVAPFSLLVPVFGMSSAALFLGEPIGPMRWGAAALLAGGVALTSLAPGKERSGGPNTLDLRGVGIHEAGR”: the protein production result is recorded as “failed”.
